In paper doi:10.64898/2025.12.30.697075:
Where “and” joins values, the source holds several entries; their conditions need not be identical. Equal values may be shown once.

Tests used:
[1] = biological target: pennycress (Thlaspi arvense) biotin carboxylase (BC) subunit of the plastid heteromeric acetyl-CoA carboxylase (Thlaspi arvense (field pennycress)); assay: cryo-EM structure
[2] = biological target: pennycress (Thlaspi arvense) biotin carboxylase (BC) subunit of the plastid heteromeric acetyl-CoA carboxylase (Thlaspi arvense (field pennycress)); assay: cross-linking

stoichiometry N [1]: 2 and 4 and 6 | stoichiometry N [2]: 2 and 4
Substance: pennycress (Thlaspi arvense) biotin carboxylase (BC) subunit of the plastid heteromeric acetyl-CoA carboxylase (enzyme)
